Consider 94 variants from the supplement of paper PMC10567573.

First the molecules themselves.
B1: DVL3 (parent)
chain: SDVVDWLYHNVEGFTDRREARKYA
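Note: lentivirally expressed fusions sorted by FACS into six bins by GFP to DsRed ratio, PSI derived from sequencing read proportions per bin multiplied by bin number.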

In the data set the parent is B1. The experiment in a line: protein stability index of a GFP-peptide fusion (GPS, HEK-293T) (PSI 1-6); higher = more stable. The note with it: c terminus: a fixed tail appended.
Turning to SDVVDWLYHNVEVFTDRREARKYA [G13V], the protein stability index was found to be 2.14.

For the variant SDVVDWLYHNVEWFTDRREARKYA [G13W], the protein stability index came out at 2.52.

As for SDVVDWLYHNVEQFTDRREARKYA [G13Q], the protein stability index amounted to 2.33.

SDVVDWLYHNVETFTDRREARKYA [G13T]: the protein stability index amounted to 2.93.

SDVVDWLYHNVERFTDRREARKYA [G13R]: the protein stability index was 3.93.

Turning to SDVVDWLYHNVEYFTDRREARKYA [G13Y], the protein stability index is 2.1.

Regarding SDVVDWLYHNVEMFTDRREARKYA [G13M], the protein stability index is 2.71.

Turning to SDVVDWLYHNVENFTDRREARKYA [G13N], the protein stability index is 2.66.

Consider SDVVDWLYHNVESFTDRREARKYA [G13S], for which the protein stability index worked out at 2.96.

For the variant SDVVDWLYHNVEPFTDRREARKYA [G13P], the protein stability index stood at 3.2.

Take SDVVDWLYHNVEGFTDRRTARKYA [E19T]: the protein stability index amounted to 2.64.

With SDVVDWLYHNVEGFTDRRLARKYA [E19L], the protein stability index worked out at 2.35.

On to SDVVDWLYHNVEGFTDRRWARKYA [E19W], for which the protein stability index stood at 1.82.

Turning to SDVVDWLYHNVEGFTDRRDARKYA [E19D], the protein stability index is 3.18.

Take SDVVDWLYHNVEGFTDRRIARKYA [E19I]: the protein stability index turned out to be 2.25.

On to SDVVDWLYHNVEGFTDRRVARKYA [E19V], for which the protein stability index was determined as 2.66.

Consider SDVVDWLYHNVEGFTDRRNARKYA [E19N], for which the protein stability index is 2.86.

On to SDVVDWLYHNVEGFTDRRGARKYA [E19G], for which the protein stability index worked out at 3.02.

As for SDVVDWLYHNVEGFTDRRSARKYA [E19S], the protein stability index is 2.73.

Consider SDVVDWLYHNVEGFTDRRMARKYA [E19M], for which the protein stability index is 2.67.

For SDVVDWLYHNVEGFTDRRKARKYA [E19K], the protein stability index was 2.33.

Consider SDVVDWLYHNVEGFTDRRPARKYA [E19P], for which the protein stability index stood at 2.85.

For SDVVDWLYHNVEGFTDRRHARKYA [E19H], the protein stability index stood at 2.58.

Turning to SDVVDWLYHNVEGFTDRRAARKYA [E19A], the protein stability index is 2.54.

On to SDVVDWLYHNVEGFTDRRCARKYA [E19C], for which the protein stability index is 2.38.

Turning to SDVVDWLYHNVEGFTDRRFARKYA [E19F], the protein stability index came out at 2.34.

Turning to SDVVDWLYHNVEGFTDRRYARKYA [E19Y], the protein stability index turned out to be 1.73.

With SDVVDWLYHNVEGFTDRNEARKYA [R18N], the protein stability index stood at 3.55.

Consider SDVVDWLYHNVEGFTDRTEARKYA [R18T], for which the protein stability index turned out to be 3.59.

With SDVVDWLYHNVEGFTDRFEARKYA [R18F], the protein stability index was found to be 2.35.

On to SDVVDWLYHNVEGFTDRKEARKYA [R18K], for which the protein stability index was determined as 2.97.

SDVVDWLYHNVEGFTDRAEARKYA [R18A]: the protein stability index is 3.19.

Take SDVVDWLYHNVEGFTDRLEARKYA [R18L]: the protein stability index turned out to be 2.04.

For the variant SDVVDWLYHNVEGFTDRHEARKYA [R18H], the protein stability index was 3.41.

With SDVVDWLYHNVEGFTDRYEARKYA [R18Y], the protein stability index was 2.19.

With SDVVDWLYHNVEGFTDRWEARKYA [R18W], the protein stability index was 1.55.

Consider SDVVDWLYHNVEGFTDRCEARKYA [R18C], for which the protein stability index turned out to be 2.52.

As to SDVVDWLYHNVEGFTDRSEARKYA [R18S], the protein stability index was 3.43.

Take SDVVDWLYHNVEGFTDRMEARKYA [R18M]: the protein stability index came out at 2.4.

For SDVVDWLYHNVEGFTDRPEARKYA [R18P], the protein stability index stood at 3.03.

With SDVVDWLYHNVEGFTDRDEARKYA [R18D], the protein stability index was 3.99.

On to SDVVDWLYHNVEGFTDRIEARKYA [R18I], for which the protein stability index is 2.42.

In the case of SDVVDWLYHNVEGFTDRVEARKYA [R18V], the protein stability index amounted to 3.53.

For SDVVDWLYHNVEGFTDREEARKYA [R18E], the protein stability index turned out to be 3.84.

In the case of SDVVDWLYHNVEGFTDRGEARKYA [R18G], the protein stability index was found to be 2.38.

Consider SDVVDWLYHNVEGFTDRQEARKYA [R18Q], for which the protein stability index is 2.94.

Consider SDVVDWLYHNVEGFNDRREARKYA [T15N], for which the protein stability index was found to be 3.13.

In the case of SDVVDWLYHNVEGFVDRREARKYA [T15V], the protein stability index was 2.85.

Take SDVVDWLYHNVEGFKDRREARKYA [T15K]: the protein stability index was found to be 2.56.

With SDVVDWLYHNVEGFRDRREARKYA [T15R], the protein stability index was 2.91.

Take SDVVDWLYHNVEGFWDRREARKYA [T15W]: the protein stability index turned out to be 2.74.

As to SDVVDWLYHNVEGFIDRREARKYA [T15I], the protein stability index stood at 2.83.

Take SDVVDWLYHNVEGFGDRREARKYA [T15G]: the protein stability index was 2.7.

With SDVVDWLYHNVEGFYDRREARKYA [T15Y], the protein stability index is 3.24.

As for SDVVDWLYHNVEGFMDRREARKYA [T15M], the protein stability index came to 3.02.

On to SDVVDWLYHNVEGFCDRREARKYA [T15C], for which the protein stability index amounted to 2.67.

SDVVDWLYHNVEGFQDRREARKYA [T15Q]: the protein stability index is 3.21.

Take SDVVDWLYHNVEGFDDRREARKYA [T15D]: the protein stability index stood at 3.04.

Take SDVVDWLYHNVEGFADRREARKYA [T15A]: the protein stability index worked out at 2.32.

On to SDVVDWLYHNVEGFHDRREARKYA [T15H], for which the protein stability index was found to be 3.23.

With SDVVDWLYHNVEGFPDRREARKYA [T15P], the protein stability index stood at 2.92.

With SDVVDWLYHNVEGFLDRREARKYA [T15L], the protein stability index was 2.91.

For SDVVDWLYHNVEGFFDRREARKYA [T15F], the protein stability index was 2.15.

Regarding SDVVDWLYHNVEGFTDRREARKWA [Y23W], the protein stability index was 2.75.

For SDVVDWLYHNVEGFTDRREARKSA [Y23S], the protein stability index was 4.11.

For the variant SDVVDWLYHNVEGFTDRREARKEA [Y23E], the protein stability index was found to be 3.97.

For the variant SDVVDWLYHNVEGFTDRREARKNA [Y23N], the protein stability index turned out to be 4.05.

As for SDVVDWLYHNVEGFTDRREARKTA [Y23T], the protein stability index was 3.55.

For the variant SDVVDWLYHNVEGFTDRREARKAA [Y23A], the protein stability index turned out to be 4.21.

As to SDVVDWLYHNVEGFTDRREARKVA [Y23V], the protein stability index is 3.6.

Consider SDVVDWLYHNVEGFTDRREARKFA [Y23F], for which the protein stability index was found to be 3.17.

SDVVDWLYHNVEGFTDRREARKKA [Y23K]: the protein stability index was 3.83.

SDVVDWLYHNVEGFTDRREARKIA [Y23I]: the protein stability index turned out to be 2.82.

Consider SDVVDWLYHNVEGFTDRREARKRA [Y23R], for which the protein stability index came to 4.18.

For the variant SDVVDWLYHNVEGFTDRREARKCA [Y23C], the protein stability index worked out at 3.69.

Consider SDVVDWLYHNVEGFTDRREARKHA [Y23H], for which the protein stability index worked out at 3.73.

With SDVVDWLYHNVEGFTDRREARKDA [Y23D], the protein stability index stood at 3.95.

With SDVVDWLYHNVEGFTDRREARKPA [Y23P], the protein stability index was determined as 3.97.

On to SDVVDWLYHNVEGFTDRREARKGA [Y23G], for which the protein stability index came out at 4.05.

For the variant SDVVDWLYHNVEGFTDRREARKLA [Y23L], the protein stability index was determined as 3.15.

With SDVVDWLYHNVEGFTDRREACKYA [R21C], the protein stability index is 2.31.

For the variant SDVVDWLYHNVEGFTDRREAVKYA [R21V], the protein stability index came out at 2.78.

For the variant SDVVDWLYHNVEGFTDRREAMKYA [R21M], the protein stability index was 2.35.

SDVVDWLYHNVEGFTDRREAAKYA [R21A]: the protein stability index turned out to be 2.48.

SDVVDWLYHNVEGFTDRREANKYA [R21N]: the protein stability index was 3.21.

For the variant SDVVDWLYHNVEGFTDRREAQKYA [R21Q], the protein stability index stood at 3.35.

As for SDVVDWLYHNVEGFTDRREAFKYA [R21F], the protein stability index came to 2.65.

As for SDVVDWLYHNVEGFTDRREAYKYA [R21Y], the protein stability index was determined as 2.34.

With SDVVDWLYHNVEGFTDRREALKYA [R21L], the protein stability index came out at 3.1.

Regarding SDVVDWLYHNVEGFTDRREADKYA [R21D], the protein stability index turned out to be 3.52.

As to SDVVDWLYHNVEGFTDRREAHKYA [R21H], the protein stability index amounted to 3.02.

As to SDVVDWLYHNVEGFTDRREAIKYA [R21I], the protein stability index is 2.33.

Regarding SDVVDWLYHNVEGFTDRREATKYA [R21T], the protein stability index was 3.88.

For SDVVDWLYHNVEGFTDRREAWKYA [R21W], the protein stability index worked out at 1.67.
